The target in experiment [1] is T1, murine OX40 (murine, UniProt P47741 20-272).
T1 construct: also called muOX40
T1 sequence: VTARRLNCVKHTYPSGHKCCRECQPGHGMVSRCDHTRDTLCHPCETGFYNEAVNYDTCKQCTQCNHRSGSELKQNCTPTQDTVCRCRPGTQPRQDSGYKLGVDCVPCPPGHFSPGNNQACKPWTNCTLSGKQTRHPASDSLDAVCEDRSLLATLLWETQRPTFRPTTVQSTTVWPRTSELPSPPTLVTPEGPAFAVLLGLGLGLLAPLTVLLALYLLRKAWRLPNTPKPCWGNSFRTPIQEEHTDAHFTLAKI
As to the kind of experiment: flow cytometry, activated murine OX40+ CD8+ T cells. The method, then: (§1) For labeling cells were harvested, washed with pre-warmed (37° C.) DPBS and adjusted to a cell density of 1×10⁷ cells/mL in DPBS. eFluor670 cell proliferation dye (eBioscience, Cat.-No. 65-0840-85) was added to the suspension of naïve splenocytes at a final concentration of 2.5 μM and a final cell density of 0.5×10⁷ cells/mL in DPBS. Cells were then incubated for 10 min at room temperature in the dark. To stop labeling reaction, 4 mL heat inactivated FBS were added and cells were washed three times with T cell medium. A mixture of 1×10⁵ resting eFluor670 labeled splenocytes and 1×10⁵ unlabeled activated splenocytes were then added to wells of round-bottomed suspension 96-well plates (Greiner bio-one, cellstar, Cat. No. 650185).
(§2) For discrimination between live and dead cells, samples were stained with Zombie Aqua Viability Dye (Biolegend, Cat. No. 423102) in DPBS for 10 minutes at room temperature. Cells were then washed once with FACS buffer and subsequently stained for 90 minutes at 4° C. in the dark in 50 μL/well 4° C. […] After washing three times with excess FACS buffer, cells were stained for 30 minutes at 4° C. in the dark in 25 μL/well 4° C.
(§3) Plates were finally resuspended in 85 μL/well FACS buffer and acquired the same day using 4-laser LSR-II cytometer (BD Bioscience with DIVA software).
In general terms: Flow cytometry measures light scatter and fluorescence of single cells or particles in a stream.

The target in experiment [2] is T2, murine FAP (murine, UniProt P97321 1-761).
T2 construct: whole, on cells; CT26muFAP served as the muEpCAM-negative specificity control cell line; also called muFAP; CT26muFAP cells
T2 sequence (looked up): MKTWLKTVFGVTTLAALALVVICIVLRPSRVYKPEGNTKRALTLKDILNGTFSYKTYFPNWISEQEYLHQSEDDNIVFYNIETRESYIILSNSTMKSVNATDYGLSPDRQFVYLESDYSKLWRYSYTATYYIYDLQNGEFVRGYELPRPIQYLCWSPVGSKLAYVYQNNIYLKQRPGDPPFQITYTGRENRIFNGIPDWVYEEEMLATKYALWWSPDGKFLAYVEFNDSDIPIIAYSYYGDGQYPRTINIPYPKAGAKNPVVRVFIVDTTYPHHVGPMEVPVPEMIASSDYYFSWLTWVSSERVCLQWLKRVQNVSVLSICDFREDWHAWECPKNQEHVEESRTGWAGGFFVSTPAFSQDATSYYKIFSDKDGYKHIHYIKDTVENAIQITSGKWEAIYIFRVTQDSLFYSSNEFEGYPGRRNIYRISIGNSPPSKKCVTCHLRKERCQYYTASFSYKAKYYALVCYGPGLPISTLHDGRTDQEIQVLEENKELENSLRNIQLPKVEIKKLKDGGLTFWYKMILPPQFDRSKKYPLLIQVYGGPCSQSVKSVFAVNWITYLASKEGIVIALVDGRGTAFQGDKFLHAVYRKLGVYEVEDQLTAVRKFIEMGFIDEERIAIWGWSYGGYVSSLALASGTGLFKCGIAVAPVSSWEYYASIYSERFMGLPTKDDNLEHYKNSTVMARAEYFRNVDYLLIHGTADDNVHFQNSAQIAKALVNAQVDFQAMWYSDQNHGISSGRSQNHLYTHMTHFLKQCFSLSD
In words: flow cytometry on CT26muFAP cells, which stably express murine FAP. The method, then: (§4) The binding to cell surface murine EpCAM was analysed using mouse EpCAM-positive CT26muEpCAM c125 cells, which stably expresses murine EpCAM. The specificity of binding was analysed by determination of binding to muEpCAM-negative cell line CT26muFAP, which stably expresses murine FAP.
(§5) For analysis of binding of the antigen binding molecules, 0.5×10⁵ CT26muEpCAM or 0.5×10⁵ CT26muFAP cells were added to wells of round-bottomed suspension cell 96-well plates (greiner bio-one, cellstar, Cat. No. 650185). For discrimination of live and dead cells, samples were stained with Zombie Aqua Viability Dye (Biolegend, Cat. No 423102) in PBS for 10 minutes at room temperature. Cells were then washed once with FACS buffer and subsequently stained for 90 minutes at 4° C. in the dark in 50 μL/well 4° C.
(§6) Plates were finally resuspended in 85 μL/well FACS-buffer and acquired the same day using 4-laser LSR-II cytometer (BD Bioscience with DIVA software).

The target of experiment [3] is T3, murine EpCAM (murine, UniProt Q99JW5 24-315).
T3 construct: Stably expressed on CT26muEpCAM cl25 cells; also called muEpCAM; CT26muEpCAM cells
T3 sequence: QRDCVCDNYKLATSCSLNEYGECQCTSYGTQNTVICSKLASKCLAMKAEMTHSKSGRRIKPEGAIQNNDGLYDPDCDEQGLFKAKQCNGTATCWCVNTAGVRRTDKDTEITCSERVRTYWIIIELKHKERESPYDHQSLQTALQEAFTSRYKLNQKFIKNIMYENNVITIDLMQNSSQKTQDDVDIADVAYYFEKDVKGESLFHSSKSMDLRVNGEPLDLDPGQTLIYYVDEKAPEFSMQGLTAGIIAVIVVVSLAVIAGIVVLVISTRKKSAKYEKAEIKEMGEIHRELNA
As to the kind of experiment: flow cytometry, muEpCAM+ CT26muEpCAM cells. Here is the method: as §4, §5, §6

Experiment [4] concerns the target T1, murine OX40. In words: flow cytometry, activated murine OX40+ CD4+ T cells. The method, then:
as §1, §2, §3

B1: bispecific, tetravalent anti-murine OX40, monovalent anti-murine EpCAM 4+1 molecule (muOX40 OX86/muEpCAM G8.8 DAPG 4+1) (bispecific antibody, mouse IgG1, kappa)
heavy 1: QVQLKESGPGLVQPSQTLSLTCTVSGFSLTGYNLHWVRQPPGKGLEWMGRMRYDGDTYYNSVLKSRLSISRDTSKNQVFLKMNSLQTDDTAIYYCTRDGRGDSFDYWGQGVMVTVSSAKTTPPSVYPLAPGSAAQTNSMVTLGCLVKGYFPEPVTVTWNSGSLSSGVHTFPAVLQSDLYTLSSSVTVPSSTWPSQTVTCNVAHPASSTKVDKKIVPRDCGGGGSGGGGSQVQLKESGPGLVQPSQTLSLTCTVSGFSLTGYNLHWVRQPPGKGLEWMGRMRYDGDTYYNSVLKSRLSISRDTSKNQVFLKMNSLQTDDTAIYYCTRDGRGDSFDYWGQGVMVTVSSAKTTPPSVYPLAPGSAAQTNSMVTLGCLVKGYFPEPVTVTWNSGSLSSGVHTFPAVLQSDLYTLSSSVTVPSSTWPSQTVTCNVAHPASSTKVDKKIVPRDCGCKPCICTVPEVSSVFIFPPKPKDVLTITLTPKVTCVVVAISKDDPEVQFSWFVDDVEVHTAQTKPREEQINSTFRSVSELPIMHQDWLNGKEFKCRVNSAAFGAPIEKTISKTKGRPKAPQVYTIPPPKEQMAKDKVSLTCMITNFFPEDITVEWQWNGQPAENYDNTQPIMDTDGSYFVYSDLNVQKSNWEAGNTFTCSVLHEGLHNHHTEKSLSHSPGGGGGSGGGGSGGGGSGGGGSDIQMTQSPASLSASLGETVSIECLASEGISNDLAWYQQKSGKSPQLLIYATSRLQDGVPSRFSGSGSGTRYSLKISGMQPEDEADYFCQQSYKYPWTFGGGTKLELK
heavy 2: QVQLKESGPGLVQPSQTLSLTCTVSGFSLTGYNLHWVRQPPGKGLEWMGRMRYDGDTYYNSVLKSRLSISRDTSKNQVFLKMNSLQTDDTAIYYCTRDGRGDSFDYWGQGVMVTVSSAKTTPPSVYPLAPGSAAQTNSMVTLGCLVKGYFPEPVTVTWNSGSLSSGVHTFPAVLQSDLYTLSSSVTVPSSTWPSQTVTCNVAHPASSTKVDKKIVPRDCGGGGSGGGGSQVQLKESGPGLVQPSQTLSLTCTVSGFSLTGYNLHWVRQPPGKGLEWMGRMRYDGDTYYNSVLKSRLSISRDTSKNQVFLKMNSLQTDDTAIYYCTRDGRGDSFDYWGQGVMVTVSSAKTTPPSVYPLAPGSAAQTNSMVTLGCLVKGYFPEPVTVTWNSGSLSSGVHTFPAVLQSDLYTLSSSVTVPSSTWPSQTVTCNVAHPASSTKVDKKIVPRDCGCKPCICTVPEVSSVFIFPPKPKDVLTITLTPKVTCVVVAISKDDPEVQFSWFVDDVEVHTAQTKPREEQINSTFRSVSELPIMHQDWLNGKEFKCRVNSAAFGAPIEKTISKTKGRPKAPQVYTIPPPKKQMAKDKVSLTCMITNFFPEDITVEWQWNGQPAENYKNTQPIMKTDGSYFVYSKLNVQKSNWEAGNTFTCSVLHEGLHNHHTEKSLSHSPGGGGGSGGGGSGGGGSGGGGSEVQLAESGGGLVQPGRSMKLSCAASGFTFSNFPMAWVRQAPTKGLEWVATISTSGGSTYYRDSVKGRFTISRDNAKSTLYLQMNSLRSEDTATYYCTRTLYILRVFYFDYWGQGVMVTVSS
light: DIVMTQGALPNPVPSGESASITCRSSQSLVYKDGQTYLNWFLQRPGQSPQLLTYWMSTRASGVSDRFSGSGSGTYFTLKISRVRAEDAGVYYCQQVREYPFTFGSGTKLEIKRADAAPTVSIFPPSSEQLTSGGASVVCFLNNFYPKDINVKWKIDGSERQNGVLNSWTDQDSKDSTYSMSSTLTLTKDEYERHNSYTCEATHKTSTSPIVKSFNRNEC
notes: muIgG1 DAPG with DDKK heterodimerisation; also called 4+1 muEpCAM; 4 + 1 anti-muOX40, anti-muEpCAM
For B1, the EC50 (as a rule, the concentration at which the effect is half-maximal) in experiment [1] worked out at 0.82 nM; in experiment [3], 82.5 nM; in experiment [4] it was 1.47 nM. Moreover, the binding result in experiment [2] was “no binding”.

(Values after patent US20200231691A1 (Hoffmann-La Roche, published 2020).)
